Test results published in patent US20060160761A1, “Regulation of vascular endothelium using BMX tyrosine kinase” (priority 1994, published 2006).
“Also recorded” adds a separate entry of the source.

B1: VEGF-B: VEGF-B produced in Drosophila cells; ligand of Flt1 receptor (protein, UniProt P49765 22-207, looked up)
Vascular endothelial growth …: PVSQPDAPGHQRKVVSWIDVYTRATCQPREVVVPLTVELMGTVAKQLVPSCVTVQRCGGCCPDDGLECVPTGQHQVRMQILMIRYPSSQLGEMSLEEHSQCECRPKKKDSAVKPDRAATPHHRPQPRSVPGWDSAPGAPSPADITHPTPAPGPSAHAAPSTTSALTPGPAAAAADAAASSVAKGGA
B2: GCSF: GCSF growth factor (granulocyte growth factor), gift from Dr. Riitta Alitalo (protein)
chain: TPLGPASSLPQSFLLKCLEQVRKIQGDGAALQEKLCATYKLCHPEELVLLGHSLGIPWAPLSSCPSQALQLAGCLSQLHSGLFLYQGLLQALEGISPELGPTLDTLQLDVADFATTIWQQMEELGMAPALQPTQGAMPAFASAFQRRAGGVLVASHLQSFLEVSYRVLRHLAQP

Legend:
[1] = tested on: endogenous Bmx; assay: Kinase activity of endogenous Bmx immunoprecipitated from stimulated HUVECs, with or without PI-3 kinase inhibitors; assay type: cell-based, human; conditions: HUVECs starved overnight; hVEGF and VEGF-B 60 ng/ml for 5 min, IL-3 200 ng/ml for 30 min
Description: The polyclonal antibody (Ab) against human Bmx was produced against the Tec Homology (TH) domain by Dr. Toshio Suda (amino acids 151-169, NH2-[…]—COOH (SEQ. ID. NO.: 4)). The monoclonal anti-hemagglutinin (HA)-epitope Ab, phosphotyrosine Ab, and anti-CD31 Ab were from Berkeley Antibody Company (Richmond, Calif.), from Transduction Laboratories and from DAKO, respectively. GCSF growth factor was a kind gift from Dr. Riitta Alitalo, while VEGF was obtained from R&D Systems, Minneapolis, Minn. VEGF-B was produced in Drosophila cells by Terhi Karpanen. Mouse IL-3 was obtained from Calbiochem Novabiochem. Phosphatidyl inositol-3 kinase inhibitors Wortmannin and LY294002, were both from Sigma. For inhibition of PI3K activity, 100 nM for 30 min of Wortmannin and 100 μM of LY294002 for 30 min, were used.
Cell culture and transfections. 293T cells were grown in Dulbecco's Modified Eagle's Medium (DMEM), Human umbilical vein endothelial cells (HUVECs) were maintained in Hy-clone 199 medium. […]
(§1) In vitro substrate immunocomplex kinase assay was performed as follows. […] The filters were fixed and washed one time in 10% TCA 8% sodium pyrophosphate, 3 times in 5% TCA and 2 times in ethanol after which radioactivity was measured using Pharmacia Wallac 1410 Liquid Scintillation Counter. […] The gel was dried and Bmx autokinase activity was detected by exposure on film.

[2] = tested on: Bmx; assay: In vitro substrate immunocomplex kinase assay of Bmx immunoprecipitated from stimulated BmxHA expressing 32Dcl3 cells; assay type: cell-based, mouse; conditions: BmxHA expressing 32Dcl3 pools, starved 14 hours in IL-3 and serum free media; IL-3 200 ng/ml for 30 min, hGCSF 100 ng/ml for 5 min; vs unstimulated
Method: Cell culture and transfections. 293T cells were grown in Dulbecco's Modified Eagle's Medium (DMEM), Human umbilical vein endothelial cells (HUVECs) were maintained in Hy-clone 199 medium. […] All media were supplemented with 10% fetal calf serum, glutamine and antibiotics, the Hy-clone 199 medium additionally with endothelial cell growth supplement-ECGS (Upstate Biotechnology). Where indicated, cells were stimulated with growth factors, hGCSF 100 ng/ml, hVEGF and VEGF-B 60 ng/ml, for 5 min or with mIL-3 or hIL-3, 200 ng/ml, for 30 min.
Transfections and generation of stable BmxHA and BmxHA K444R expressing pools (and clones). Transient co-transfections of293T cells were done using the Calcium Phosphate Transfection kit (GIBCO) according to manufacturer's instructions. The cells were transfected with Bmx-HA expression plasmid and the receptor plasmid or empty vector (PCI-Neo or pcDNAZ3.1) in the ration of 1:4. […]
as §1

| Molecule | endogenous Bmx kinase activity after stimulation [1] | increase of Bmx kinase activity [2] |
| --- | --- | --- |
| VEGF | increased endogenous Bmx activity; also recorded: activated | – |
| B1 | increased endogenous Bmx activity; also recorded: activated | – |
| B2 | – | around 1.7 fold |
